These results are taken from patent US20200206304A1, “METHODS AND COMPOSITIONS FOR EFFICIENT DELIVERY THROUGH MULTIPLE BIO BARRIERS” (Cedars-Sinai Medical Center, priority 2017, published 2020).

For assay [1], the target named is amyloid β (Aβ) plaques (UniProt P05067). The assay can be described thus: in vivo labelling of Aβ plaques after i.v. injection into APPswe/PS1ΔE9 AD mice, injected dose 8X (0.55 µmol/Kg).
For assay [2] the target is unchanged. The assay is described as follows: in vivo labelling of Aβ plaques after i.v. injection of rhodamine-labelled conjugate into APPswe/PS1ΔE9 AD mice, dose 8X; fluorescence microscopy of brain sections.
The target is the same in assay [3]. The assay is described as follows: in vivo labelling of Aβ plaques after i.v. injection into APPswe/PS1ΔE9 AD mice, injected dose 4X (0.274 µmol/Kg).
Assay [4] has the same target. The assay is described as follows: in vivo labelling of Aβ plaques after i.v. injection into APPswe/PS1ΔE9 AD mice, injected dose 6X (0.411 µmol/Kg).
Assay [5] shares this target. The assay is described as follows: in vivo labelling of Aβ plaques after i.v. injection into APPswe/PS1ΔE9 AD mice, injected dose 2X (0.137 µmol/Kg).

Square brackets hold non-standard residues; d marks the D form. Ends that are not written are not given here.

Sequence of amyloid β (Aβ) plaques (P05067 672-713): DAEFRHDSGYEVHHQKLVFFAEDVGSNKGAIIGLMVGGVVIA

B1: PMLA/LLL/D3/rhodamine (peptide)
peptide 1: [dR][dP][dR][dT][dR][dL][dH][dT][dH][dR][dN][dR]C
peptide 2: Leu-Leu-Leu
modifications: not fully specified (some residues, N-terminus); also: PMLA scaffold carrying LLL (amide-linked to pendant carboxylates), D3 peptide and rhodamine, D3 Cys thioether to maleimide-PEG3400 on PMLA
In the case of B1, the Percentage of total plaques labeled by the reagents with amyloid β (Aβ) plaques [1] was determined as 21.1%; with amyloid β (Aβ) plaques [2] it was 21.1%; with amyloid β (Aβ) plaques [3], 0%; with amyloid β (Aβ) plaques [4], 0%; in the assay with amyloid β (Aβ) plaques [5], 0%.
